From the Human Domainome abundance scans (Beltran et al. 2025)
± gives the uncertainty stated by the source.

B1: Probable E3 ubiquitin-protein ligase MID2, residues 191 to 235; numbered along this chain, Q9UJV3 (parent)
chain: RGITCLDHENEKVNMYCVSDDQLICALCKLVGRHRDHQVASLNDR

Variants of: B1
Test: abundance fitness (aPCA) (normalised: wild type 0, dead -1); higher = more abundant; growth selection in yeast, the domain comes from the species named
Conditions: Homo sapiens

| Variant | abundance fitness |
| --- | --- |
| RGITCLDHENEKVNMYCVSDDQLICALCKLVGRHRDHQVASLHDR [N43H] | -0.016 ± 0.079 |
| RGITCLDHENEKVNMYPVSDDQLICALCKLVGRHRDHQVASLNDR [C17P] | -0.319 ± 0.14 |
| RGITCLDHENEKVNMYCVSDDQLICALCFLVGRHRDHQVASLNDR [K29F] | -0.132 ± 0.2 |
| RGITCLDHENEKVNMYCVSDDQLICALCKLVGRHRDHQVPSLNDR [A40P] | -0.415 ± 0.095 |
| RGITCLDHENEKVNMYCVSDDQLPCALCKLVGRHRDHQVASLNDR [I24P] | 0.196 ± 0.21 |
| RGITCLDHENEKVNMYCVSLDQLICALCKLVGRHRDHQVASLNDR [D20L] | -1.08 ± 0.11 |
| RGITCLDHENEKVNMYCVSDDRLICALCKLVGRHRDHQVASLNDR [Q22R] | 0.1 ± 0.054 |
| RGITCLDHENEKVNMYCVSDDQLICALCKLVGRHRDHQVAALNDR [S41A] | -0.08 ± 0.063 |
| EGITCLDHENEKVNMYCVSDDQLICALCKLVGRHRDHQVASLNDR [R1E] | 0.019 ± 0.097 |
| RGITCLDHENEKVNMYCVSDDQLICALCKVVGRHRDHQVASLNDR [L30V] | 0.003 ± 0.058 |
| RGITCLDHENEKVNMYCVSDDQLICALCKLVGRHRDHQVASQNDR [L42Q] | -0.134 ± 0.078 |
| RGITCLDHENEKVNQYCVSDDQLICALCKLVGRHRDHQVASLNDR [M15Q] | 0.166 ± 0.07 |
| RGITCLDHENEKVNMYCVSDDQLISALCKLVGRHRDHQVASLNDR [C25S] | -1.03 ± 0.14 |
| RGITCLDHENEKVNMPCVSDDQLICALCKLVGRHRDHQVASLNDR [Y16P] | -0.065 ± 0.088 |
| RGITCLDHENEKVNMYCVSDDQLICALCKLVGRHRDHWVASLNDR [Q38W] | -0.369 ± 0.098 |
| RGITCLDHENEKVNMYWVSDDQLICALCKLVGRHRDHQVASLNDR [C17W] | -0.792 ± 0.1 |
| RGITCLDHENEKVNMYCLSDDQLICALCKLVGRHRDHQVASLNDR [V18L] | -0.024 ± 0.058 |
| RGITCLDHENEKVNMYCVSDDQLICALMKLVGRHRDHQVASLNDR [C28M] | -0.942 ± 0.15 |
| RGITCLDHENEKVNMYCVSDDQLICALCKLVGWHRDHQVASLNDR [R33W] | -0.39 ± 0.076 |

| Variant | abundance fitness |
| --- | --- |
| RGITCLDHENEKVNMYCVSDDQLICALCELVGRHRDHQVASLNDR [K29E] | -0.039 ± 0.12 |
| RGITCLDHENEKVNMYCVSDDQLICALCRLVGRHRDHQVASLNDR [K29R] | 0.07 ± 0.06 |
| RGITCLDHENEKVWMYCVSDDQLICALCKLVGRHRDHQVASLNDR [N14W] | -0.482 ± 0.11 |
| RGITCLDHENEKVNMYCVSDDQLICALCKLPGRHRDHQVASLNDR [V31P] | 0.014 ± 0.057 |
| RGITCLDHFNEKVNMYCVSDDQLICALCKLVGRHRDHQVASLNDR [E9F] | 0.1 ± 0.16 |
| RGITCLDHENEKVNMYCVSDDQLICALCKLVGRHRDHQVASLKDR [N43K] | 0.164 ± 0.071 |
| RGITCLDHENEKVNMYCVSDDQLICALCKLVGRHRDHQVGSLNDR [A40G] | 0.003 ± 0.052 |
| RGITCLDHENEKVNAYCVSDDQLICALCKLVGRHRDHQVASLNDR [M15A] | 0.063 ± 0.056 |
| RGITCLDHENEKVNMYRVSDDQLICALCKLVGRHRDHQVASLNDR [C17R] | -0.304 ± 0.068 |
| RGITCLMHENEKVNMYCVSDDQLICALCKLVGRHRDHQVASLNDR [D7M] | -0.239 ± 0.078 |
| RGITCLDHVNEKVNMYCVSDDQLICALCKLVGRHRDHQVASLNDR [E9V] | -0.299 ± 0.051 |
| RGITCLDHEIEKVNMYCVSDDQLICALCKLVGRHRDHQVASLNDR [N10I] | -0.176 ± 0.37 |
| RGITCLDHENEKVNMYCVSDDQLICALCKLVGRHRVHQVASLNDR [D36V] | -0.3 ± 0.07 |
| RGITCLDHENEKVNMYCVSDDQLICALCKLVGVHRDHQVASLNDR [R33V] | -0.073 ± 0.059 |
| RGITCLDHENEKVNMYCVSDDQLICALCKLVGRHRDHQVAFLNDR [S41F] | -0.385 ± 0.14 |
| RGITCLDHENEKVNMYCVSDDQLICALCKLVGRHRDHQSASLNDR [V39S] | 0.082 ± 0.11 |
| RGITCLCHENEKVNMYCVSDDQLICALCKLVGRHRDHQVASLNDR [D7C] | -0.192 ± 0.071 |
| RGITCLDHENEKVNMYCVSDIQLICALCKLVGRHRDHQVASLNDR [D21I] | -0.951 ± 0.17 |
| RGITCLDHENEKVNMYCVSDDQLICALCKLVGRHRLHQVASLNDR [D36L] | -0.125 ± 0.06 |

| Variant | abundance fitness |
| --- | --- |
| DGITCLDHENEKVNMYCVSDDQLICALCKLVGRHRDHQVASLNDR [R1D] | -0.079 ± 0.072 |
| RGITCLDHENEKVNMYCVSDDQLICALCKLTGRHRDHQVASLNDR [V31T] | 0.131 ± 0.086 |
| RGITCLDHENEKVNMYCVSDDQLICALCKLVGRHRDHQVACLNDR [S41C] | -0.071 ± 0.085 |
| RGITCLDHENEKVNMYCVWDDQLICALCKLVGRHRDHQVASLNDR [S19W] | -0.211 ± 0.061 |
| RGITCLDHENEPVNMYCVSDDQLICALCKLVGRHRDHQVASLNDR [K12P] | 0.124 ± 0.059 |
| RGITCLDHENEKVNMYCVSDDQLICALCKLVCRHRDHQVASLNDR [G32C] | -0.589 ± 0.12 |
| RGITCLDHENEKVNMYCVSDDQLITALCKLVGRHRDHQVASLNDR [C25T] | -0.526 ± 0.37 |
| RGITCLDHENEKVNMYCVSDDQLICADCKLVGRHRDHQVASLNDR [L27D] | -0.029 ± 0.12 |
| RGITCLDHENEKVNMYCVSDDQLICALCKLVGRHEDHQVASLNDR [R35E] | 0.09 ± 0.092 |
| RGETCLDHENEKVNMYCVSDDQLICALCKLVGRHRDHQVASLNDR [I3E] | 0.036 ± 0.057 |
| RGITCLDHENEKVNMYCVSDDQLICALCKLVGRDRDHQVASLNDR [H34D] | -0.66 ± 0.13 |
| RGITCLDHENEKVNMYSVSDDQLICALCKLVGRHRDHQVASLNDR [C17S] | -0.157 ± 0.073 |
| RGITCLDHENGKVNMYCVSDDQLICALCKLVGRHRDHQVASLNDR [E11G] | -0.245 ± 0.043 |
| RGITCLDHENEKVNMYCVSDDWLICALCKLVGRHRDHQVASLNDR [Q22W] | -0.515 ± 0.13 |
| RGITCLDTENEKVNMYCVSDDQLICALCKLVGRHRDHQVASLNDR [H8T] | -0.555 ± 0.06 |
| RGITCLDHENEKVNCYCVSDDQLICALCKLVGRHRDHQVASLNDR [M15C] | 0.259 ± 0.21 |
| RGITCLTHENEKVNMYCVSDDQLICALCKLVGRHRDHQVASLNDR [D7T] | -0.223 ± 0.093 |
| RGITCADHENEKVNMYCVSDDQLICALCKLVGRHRDHQVASLNDR [L6A] | 0.145 ± 0.046 |
| RQITCLDHENEKVNMYCVSDDQLICALCKLVGRHRDHQVASLNDR [G2Q] | -0.181 ± 0.091 |
